From patent publication US9687591B2, “Building stratified biomimetic tissues and organs using crosslinked ultrashort peptide hydrogel membranes” (Agency for Science, Technology and Research, priority 2010, dated 2017)
Entries after “also recorded” stand apart in the source; their conditions may differ. Ends that are not written are not given here. Peptide text beside a SMILES is read from it.

Columns and labels:
[1] = Kinetics of disulfide formation, oxidation by air (Ellman's assay); assay type: physicochemical; conditions: 12 mM in water, capped tubes, room temperature, after 5 days
Procedure: For oxidation by air, LK6C dissolved in water at 12 mM was left in capped micro-centrifuge tubes at room temperature. […] H2O2-assisted oxidation was much more efficient in the formation of disulfide bridges.
(§1) For air oxidation, LK6C was dissolved in MilliQ water by vigorous vortexing for five minutes and dispensed into 20 μL aliquots. At appropriate time points, 180 μL of DTNB (Sigma, Singapore) working solution (4 mg/mL in 0.1M phosphate buffer pH 7.0) was mixed with the peptide solution for 15 minutes. Absorbance at 412 nm was then measured (InfiniteM200, Tecan, Switzerland). Using a calibration curve generated with L-cysteine (Sigma) as standard (R^2=0.999), the background-subtracted value was normalised to the reading at 0 hour to give the % of thiol remaining. For H2O2-assisted oxidation, LK6C was dissolved in water (HPLC grade, J. T. Baker, N.J., USA) containing 0.06% H2O2 (Merck, Sinagpore) and dispensed into aliquots. At appropriate time points, the aliquots were analysed using an Aquity® UPLC (Waters, USA) fitted with a single-quadrupole MS. Using a calibration curve generated with pure LK6C as standard (R^2=0.999), the area under the peak corresponding to LK6C monomer was normalised to that at 0 hour to give the % of thiol remaining.

[2] = Kinetics of disulfide formation, H2O2-assisted oxidation (UPLC); assay type: physicochemical; conditions: 12 mM in water containing 0.06% H2O2, after 1 day
Procedure: Only ˜50% of thiols remained after 1 day. The R^2 value of the thiol calibration curve was 1.000.
as §1

skins of guinea pigs = experiment: Direct contact Kligman maximization test (GLP, ISO 10993-10); assay type: in vivo; conditions: GLP study by CRO Toxikon
V79 = experiment: Direct contact V79 colony assay (GLP); assay type: cell-based; conditions: GLP study by CRO Toxikon
[3] = Oscillation rheology of cysteine-containing peptide gels (stiffness G', LVE limit); assay type: physicochemical
Excerpt: Oscillatory rheology was used to quantify the stiffness of IVKC gels formed in the presence of varying amount of H2O2 in PBS. Elastic modulus, G′, was plotted against angular frequency, ω (FIG. 45). As already mentioned in FIG. 41, the G′ value increased tremendously after crosslinking with 0.06% H2O2 in PBS. Further increasing the amount of H2O2 increased the G′ values even more. For instance, gels cross-linked completely with 0.2% H2O2 in PBS achieved a G′ value of nearly 1 MPa. This level of stiffness was not achieved before. Hereafter, IVKC gels will be prepared in the presence of 0.2% H2O2 in PBS. Data here was reported as average of 4 samples±standard deviation.
Rheology: The rheological properties of casted gels were measured with an ARES-G2 (TA Instruments, USA) using the oscillation method. Frequency-sweep studies were performed with ω=0-100 rad/s at strain, γ=0.1%. The gel stiffness was represented by plotting G′ against ω. Amplitude-sweep studies were performed beforehand at 1 Hz with γ=0-100%. The LVE limit of the gel was defined as the value of γ when G′ first dropped below 90% of the average initial value.
The rheological properties of casted gels were measured with an ARES-G2 (TA Instruments, USA) using the oscillation method. Frequency-sweep studies were performed with ω=0-100 rad/s at strain, γ=0.1%. The gel stiffness was represented by plotting G′ against ω. […]

[4] = Extent of crosslinking of IVKC by UPLC; assay type: physicochemical; conditions: 24 hours
Procedure: (§2) The crosslinking density of IVKC could be further modulated with H2O2 content. Ultra performance liquid chromatography (UPLC) was used to study the extent of crosslinking in IVKC after oxidation with varying amount of H2O2 in PBS for 24 hours. […] At 0.2% H2O2 in PBS for instance, IVKC was 100% crosslinked and none of the monomers remained.
as §2, with “can” for “could”, “be” for “be further”, “hours (FIG. 43). In the absence of H2O2, IVKC remained mostly as monomers (>96%).” for “hours.”, “cross-linked” for “crosslinked”
The crosslinking density of Ac-IVKC was modulated by varying the concentration of H2O2 (0-0.2%). The amount of monomeric (retention time-2.40 mins) and dimeric (˜2.67 mins) species were then quantified with ultra-performance liquid chromatography (UPLC) after incubation in the various H2O2 concentration for 24 hours at room temp (FIG. 43).

[5] = system: Human corneal endothelial cells (HCEC); experiment: Biocompatibility of cross-linked IVKC gels, calcein staining; assay type: cell-based; conditions: gels cross-linked with 0.2% H2O2 in PBS for 24 hours and purified
Procedure: To test the biocompatibility of cross-linked IVKC gels, a sensitive primary cell type was seeded onto the gels. IVKC gels were cross-linked with 0.2% H2O2 in PBS for 24 hours and excess H2O2 was purified from the gel using a dialysis-inspired method (as described in WO 2014/116187).
To test the biocompatibility of cross-linked IVKC gels, a sensitive primary cell type was seeded onto the gels. IVKC gels were cross-linked with 0.2% H2O2 in PBS for 24 hours and excess H2O2 was purified from the gel using a dialysis-inspired method reported previously, see e.g. WO 2014/116187. Human corneal endothelial cells (HCEC, a kind gift from Singapore Eye Research Institute) freshly derived from human donor corneas were then seeded onto the gel and maintained in culture.

[6] = Water soak of casted gels (shape retention / degradation); assay type: physicochemical; conditions: not oxidised, 24 hours of water soak
Procedure: Peptide was dissolved in 200 μL of water+/−H2O2 and filled into custom-made hollow ring casts (diameter ˜1 cm). The ring ends were sealed with parafilm to minimise evaporation and the cast was kept at 25° C. for 22 hours before further manipulations.
LK6 or LK6C gels were first casted and then soaked in water for various durations. […] These observations are also supported by rheological measurements (FIG. 28). Therefore, the strategy of disulfide crosslinking has increased the resistance of the gel to degradation and has made it possible to use the gel at a lower concentration compared to previous formulations. This, in turn, will translate into significant cost savings.

[7] = Concentration needed for gelation; assay type: physicochemical
Procedure: FIG. 18A illustrates the determination of a suitable gelation concentration with the LK6 control peptide sequence. A working concentration was established that was suitably low so as to save on material during testing but yet, capable of forming gels strong enough to be manipulated. LK6 gels were therefore casted at different concentrations and their stiffness was measured (average±s.d. of triplicates). As expected, G′ values increased with peptide concentration and it was determined that a working concentration of 12 mM afforded gels with sufficient mechanical integrity to withstand handling.
The present invention as defined above offers significant improvements in material properties such as stiffness, elasticity and resistance of the gel to degradation compared to previous disclosures—ultra-small peptide-based and peptide/polymer-based hydrogels. Reactive chemical groups are also introduced to the peptide fibers which allow the facile in-situ chemical conjugation of biological signals. Furthermore, compared to previous formulations, less material is now needed for gelation (e.g. 10 mg/ml LK6C instead of 25 mg/ml for LK6), which translates into significant cost savings and higher water contents. This class of material is suitable for biomedical applications, for example but not limited to, three-dimensional cell culture, tissue engineering, sensing and drug and gene delivery.

CC[C@H](C)[C@H](NC(=O)[C@H](CC(C)C)NC(C)=O)C(=O)N[C@H](C(=O)N[C@@H](C)C(=O)NCC(=O)N[C@@H](CCCCN)C(=O)N[C@@H](CS)C(=O)O)C(C)C [LK6C, LIVAGKC] (Ac-LIVAGKC-OH)
% of thiols remaining [1]: ~80%
% of thiols remaining [2]: ~50%
skin sensitization (skins of guinea pigs): no sensitization
toxicity (V79): no significant toxicity

Ac-IVKC
increase of stiffness after oxidative crosslinking ([3]; 0.06% H2O2 in PBS): close to two orders
stiffness, elastic modulus G' ([3]; gels crosslinked completely with 0.2% H2O2 in PBS): ~1 MPa
crosslinked fraction ([4]; 0.2% H2O2 in PBS): 100%
monomer content ([4]; absence of H2O2, PBS): > 96%
duration cells remained viable (positive calcein staining) [5]: at least ten days

LIVAGK (L-form) [LK6]
gel state after water soak [6]: did not survive; also recorded: completely degraded
concentration needed for gelation [7]: 25000 µg/mL
